Measured values from article PMC3840377.

Columns and labels:
streptavidin = streptavidin (UniProt P22629 25-183); assay: flow cytometry, SA-488 capture on CEM cells
alpha-thrombin [1] = target: T1, alpha-thrombin (UniProt P00734;P00734 328-363;364-622); assay: flow cytometry, sandwich on T27-AR-captured thrombin
alpha-thrombin [2] = target: T1, alpha-thrombin; assay: flow cytometry, thrombin capture on CEM cells, T-15-biotin/SA-488 read-out

Chain of streptavidin (P22629 25-183): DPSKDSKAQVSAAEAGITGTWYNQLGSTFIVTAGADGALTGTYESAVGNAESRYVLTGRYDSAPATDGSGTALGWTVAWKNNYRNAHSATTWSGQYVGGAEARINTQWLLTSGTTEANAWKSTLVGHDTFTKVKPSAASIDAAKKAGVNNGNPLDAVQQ

Binder: TTTTTTTATTGACCGCTGTGTGACGCAACACTCAAT (ssDNA, 5' diacyllipid) [SA-AR]
- binding result (streptavidin): binds

Binder: GGTTGGTGTGGTTGG (ssDNA) [T-15]
- binding result (alpha-thrombin [1]): binds

Binder: TTTTTTTGTCCGTGGTAGGGCAGGTTGGGGTGAC (ssDNA, 5' diacyllipid) [T27-AR]
- binding result (alpha-thrombin [2]): binds
